The supplement of paper PMC10126150
± gives the standard deviation of the averaged measurements.

System: ATP
Test: switch fluorescence ratio, 500 uM ATP over buffer (Cy3 cluster intensity, sum of 5 cycles each) (fold (ratio)); higher = stronger signal-on switching upon ATP binding; sequences stand for … in TCGTCGGCAGCGTCAGATGTGTATAAGAGACAGTTTTTTTTTTTTTTTTTTTTTTTTT…TC
Conditions: aptamer strand: ATP DNA aptamer (quencher-CACCTGGGGGAGTATTGCGGAGGAAGG + anchor), 100 nM annealed; ATP concentration: 500 uM
Method in brief: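 Imaging in selection buffer was followed by imaging after 15 min with 500 uM ATP at 22 °C, for Cy3-labelled switching-strand clusters annealed to 100 nM quencher-labelled ATP aptamer on a modified Illumina MiSeq flow-cell. Five of these buffer/ATP cycles ran, separated by NaOH stripping and re-annealing. The fluorescence ratio per cluster is summed target-cycle over summed buffer-cycle Cy3 intensity, averaged per switch-domain sequence; clusters outside 100-1000 RFU were removed.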
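Note: ATP exposure 15 min at 22 °C before imaging.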

Sequence	switch fluorescence ratio
TATCGAGATA	1.02 ± 0.04
TATCGCTTGG	1 ± 0.018
TATCGGCAGC	1.07 ± 0.043
TATCGGGATG	0.956 ± 0.03
TATCGGGGGG	0.996 ± 0.043
TATCGTACAT	1.11 ± 0.023
TATCGTATGT	0.991 ± 0.027
TATCGTTGTA	0.93881 ± 0.00024
TATCTATATT	1 ± 0.016
TATCTATGAG	1.01 ± 0.046
TATCTGGCTT	1.019 ± 0.0013
TATCTGGGTC	1.02 ± 0.067
TATCTTCTAT	1.035 ± 0.0096
TATGAAGCCG	1.06 ± 0.044
TATGAAGCCT	1.16 ± 0.02
TATGAATATT	0.985 ± 0.027
TATGAATGTG	0.991 ± 0.022
TATGACGCAG	0.993 ± 0.011
TATGACTCGT	0.99 ± 0.021
TATGAGCAGC	1.01 ± 0.066
TATGAGGGG	0.999 ± 0.027
TATGAGTAGG	0.995 ± 0.015
TATGAGTATT	0.9875 ± 0.0026
TATGATATGG	1.04 ± 0.025
TATGATATTA	0.9907 ± 0.0064

Sequence	switch fluorescence ratio
TATGATGCTA	1.03 ± 0.088
TATGATGGAA	0.966 ± 0.024
TATGATGGTG	1.04 ± 0.035
TATGATTCGG	0.992 ± 0.057
TATGATTGCG	1.01 ± 0.04
TATGCAGACT	0.956 ± 0.092
TATGCAGCG	1.001 ± 0.0024
TATGCAGTTT	0.968 ± 0.026
TATGCATATG	1.02 ± 0.048
TATGCGATTG	1.04 ± 0.019
TATGCGCCGT	0.984 ± 0.026
TATGCGTTGC	1.02 ± 0.023
TATGCTAGGT	0.983 ± 0.012
TATGCTGGAG	1.02 ± 0.0047
TATGGAAGTA	1.01 ± 0.033
TATGGAGAGG	0.984 ± 0.015
TATGGAGTTA	0.986 ± 0.027
TATGGATCGC	1.01 ± 0.026
TATGGATTTT	0.987 ± 0.016
TATGGCGGGT	1 ± 0.014
TATGGGCAGG	1.04 ± 0.022
TATGGGGTAG	1 ± 0.013
TATGGGTAGC	0.986 ± 0.019
TATGGTATGC	1.0138 ± 0.00069
TATGGTGACG	1 ± 0.12

Sequence	switch fluorescence ratio
TATGGTGTGG	0.967 ± 0.024
TATGGTTACG	0.9997 ± 0.0022
TATGGTTTAG	1.02 ± 0.015
TATGTAATTG	0.965 ± 0.058
TATGTAATTT	0.9932 ± 0.0092
TATGTACCTT	1.179 ± 0.0091
TATGTACGTT	1.04 ± 0.051
TATGTAGCCG	1.03 ± 0.098
TATGTATAGG	1.03 ± 0.049
TATGTATCCG	1.03 ± 0.062
TATGTATGGA	0.989 ± 0.015
TATGTCCCGT	0.974 ± 0.029
TATGTGATGT	0.981 ± 0.032
TATGTGGGTG	1.01 ± 0.035
TATGTTCGAG	0.968 ± 0.033
TATGTTGGGG	0.957 ± 0.018
TATGTTGTCG	1.08 ± 0.12
TATGTTTTGA	0.994 ± 0.033
TATGTTTTTA	1.02 ± 0.019
TATTAAACCG	1.06 ± 0.013
TATTAACCTG	1.03 ± 0.022
TATTAACGAG	0.995 ± 0.032
TATTAAGTTT	1.02 ± 0.039
TATTACACGT	1.021 ± 0.0046
TATTACCCAA	1.05 ± 0.025

Sequence	switch fluorescence ratio
TATTACGAGT	1.02 ± 0.013
TATTAGAAGC	1.01 ± 0.046
TATTAGACGA	0.963 ± 0.015
TATTAGCAGC	1.03 ± 0.012
TATTAGGTGG	1.1 ± 0.059
TATTAGTAAG	0.985 ± 0.034
TATTATAATA	0.98 ± 0.035
TATTATAGGA	0.982 ± 0.017
TATTATATTA	1.02 ± 0.019
TATTATCTTT	1.01 ± 0.024
TATTATGAGA	0.983 ± 0.026
TATTATGTAT	0.982 ± 0.031
TATTATGTGG	0.961 ± 0.01
TATTATTCTG	0.986 ± 0.023
TATTATTTTT	0.998 ± 0.026
TATTCACAAG	1.024 ± 0.0027
TATTCATCCA	1.01 ± 0.02
TATTCATTAA	0.969 ± 0.011
TATTCATTGT	1.005 ± 0.0074
TATTCCGGCC	1.05 ± 0.058
TATTCCTCTG	2.03 ± 0.26
TATTCGAGGC	1.06 ± 0.052
TATTCGCATC	2.12 ± 0.41
TATTCTCATG	1 ± 0.047
TATTCTTGGG	1 ± 0.028

Sequence	switch fluorescence ratio
TATTGACGCC	1.09 ± 0.033
TATTGACGGT	1.02 ± 0.022
TATTGACTAG	1.03 ± 0.059
TATTGAGAGA	1.02 ± 0.053
TATTGAGCTG	0.9775 ± 0.0087
TATTGAGTAA	1.02 ± 0.02
TATTGATTTG	1.02 ± 0.019
TATTGCATTA	1.03 ± 0.013
TATTGCGCTC	1.09 ± 0.065
TATTGCGGTC	1.005 ± 0.0018
TATTGCGTGG	0.9836 ± 0.0073
TATTGCTAGG	0.9582 ± 0.0063
TATTGCTTCA	1.03 ± 0.016
TATTGGCGTC	0.985 ± 0.029
TATTGGGGGC	1 ± 0.018
TATTGGGTGG	0.9919 ± 0.0053
TATTGGTCTA	1.04 ± 0.087
TATTGGTGGT	0.995 ± 0.027
TATTGGTGTT	0.99 ± 0.015
TATTGTAATT	1.01 ± 0.014
TATTGTATTC	1 ± 0.013
TATTGTGGGT	0.98 ± 0.035
TATTGTTTCG	1.02 ± 0.029
TATTTAAAAA	1.01 ± 0.035
TATTTAAGTG	1.039 ± 0.0092

Sequence	switch fluorescence ratio
TATTTACATT	1.03 ± 0.048
TATTTAGATG	1.01 ± 0.018
TATTTAGCCC	1.047 ± 0.0069
TATTTAGCGT	1.01 ± 0.067
TATTTCATTG	1.02 ± 0.03
TATTTCCCGT	1.06 ± 0.065
TATTTCGATA	1.029 ± 0.0047
TATTTCGGGG	1.02 ± 0.023
TATTTCTTGG	0.968 ± 0.014
TATTTGAAAG	1 ± 0.04
TATTTGAAGG	0.986 ± 0.053
TATTTGGACT	1.04 ± 0.046
TATTTGGGAC	1.02 ± 0.025
TATTTGGGTT	1.07 ± 0.082
TATTTGTCAT	1.02 ± 0.013
TATTTGTGCG	0.988 ± 0.035
TATTTGTTGC	1.03 ± 0.041
TATTTGTTTG	0.984 ± 0.03
TATTTTAAGT	0.993 ± 0.038
TATTTTACAG	1.02 ± 0.02
TATTTTAGTG	0.996 ± 0.025
TATTTTGAAA	0.992 ± 0.027
TATTTTGGTC	1.025 ± 0.0078
TATTTTTAAA	1.02 ± 0.028
TATTTTTCAT	1.01 ± 0.052

Sequence	switch fluorescence ratio
TATTTTTT	1.02 ± 0.027
TATTTTTTAG	0.96 ± 0.013
TCAAAAAGTG	0.989 ± 0.034
TCAAAAATAT	0.987 ± 0.025
TCAAAATTTC	1.01 ± 0.0072
TCAAAATTTT	1.01 ± 0.012
TCAAACAGCG	0.9861 ± 0.00055
TCAAAGCGGA	1.01 ± 0.046
TCAAATACG	1.057 ± 0.009
TCAAATTATG	1.01 ± 0.035
TCAAATTGCC	0.982 ± 0.016
TCAAATTTTG	0.999 ± 0.021
TCAACCTTTT	1.04 ± 0.052
TCAACGAGTA	1.029 ± 0.0061
TCAACGGGGG	1.08 ± 0.17
TCAACGGTCT	0.9955 ± 0.0048
TCAAGAGGCG	1.019 ± 0.0029
TCAAGGCAA	1.8 ± 0.037
TCAAGGGGGA	1 ± 0.035
TCAAGGGGTT	1.1 ± 0.15
TCAAGGGTTC	1.03 ± 0.064
TCAAGTAGAG	0.99 ± 0.011
TCAAGTATCT	1.02 ± 0.041
TCAAGTATGT	1.006 ± 0.01
TCAAGTTACA	1.078 ± 0.0041

Sequence	switch fluorescence ratio
TCAAGTTATT	0.973 ± 0.0099
TCAAGTTTG	1.011 ± 0.0069
TCAATACTTC	1.88 ± 0.19
TCAATAGACC	1.05 ± 0.011
TCAATAGTAC	1.084 ± 0.0024
TCAATCGGGT	0.995 ± 0.053
TCAATGGCTA	1.02 ± 0.018
TCAATGTTTG	1.008 ± 0.0069
TCAATTCAGG	1.01 ± 0.016
TCAATTTAGG	0.966 ± 0.014
TCACATTTTT	0.99 ± 0.076
TCACCCGTTT	0.993 ± 0.016
TCACGAATTT	1 ± 0.014
TCACGCAGGG	1.03 ± 0.023
TCACGCTTGA	1.05 ± 0.052
TCACGGACAG	1.3 ± 0.057
TCACGGGGGG	1.08 ± 0.1
TCACGGTAAT	1.16 ± 0.097
TCACGGTAGG	0.999 ± 0.012
TCACGGTGTG	0.983 ± 0.02
TCACGTTCTG	1.03 ± 0.029
TCACGTTGGA	1.01 ± 0.019
TCACGTTTTT	1.01 ± 0.031
TCACTAAAAA	0.979 ± 0.12
TCACTCATTT	1.01 ± 0.019
